Assay results taken from the DeepSol protein solubility set.

Assay: soluble on expression in E. coli; label from the status in PepcDB or PDB records

Sequence	soluble on expression in E. coli
MADINPNHTIYVNNLNEKVKKDELKRSLHMVFTQFGEIIQLMSFRKEKMRGQAHIVFKEVSSASNALRALQGFPFYGKPMRIQYAREDSDVISRAKGTFVEKRQKSTKIAKKPYEKPAKNGKSAAEPTQKEPQETDGPGLPNNILFCSNIPEGTEPEQIQTIFSQFPGLREVRWMPNTKDFAFIEYESEDLSEPARQALDNFRITPTQQITVKFASK	not soluble
MADNLPSDFDVIVIGTGLPESIIAAACSRSGQRVLHVDSRSYYGGNWASFSFSGLLSWLKEYQENNDVVTENSMWQEQILENEEAIPLSSKDKTIQHVEVFCYASQDLHKDVEEAGALQKNHASVTSAQSAEAAEAAETSCLPTAVEPLSMGSCEIPAEQSQCPGPESSPEVNDAEATGKKENSDAKSSTEEPSENVPKVQDNTETPKKNRITYSQIIKEGRRFNIDLVSKLLYSRGLLIDLLIKSNVSRYAEFKNITRILAFREGTVEQVPCSRADVFNSKQLTMVEKRMLMKFLTFCVEYEEHPDEYRAYEGTTFSEYLKTQKLTPNLQYFVLHSIAMTSETTSCTVDGLKATKKFLQCLGRYGNTPFLFPLYGQGELPQCFCRMCAVFGGIYCLRHSVQCLVVDKESRKCKAVIDQFGQRIISKHFIIEDSYLSENTCSRVQYRQISRAVLITDGSVLKTDADQQVSILTVPAEEPGSFAVRVIELCSSTMTCMKGTYLVHLTCMSSKTAREDLERVVQKLFTPYTEIEAENEQVEKPRLLWALYFNMRDSSDISRDCYNDLPSNVYVCSGPDSGLGNDNAVKQAETLFQQICPNEDFCPAPPNPEDIVLDGDSSQQEVPESSVTPETNSETPKESTVLGNPEEPSE	soluble
MADNPASSSSQQLLALRVMRLARPKFAPVDGFSHDPVDPTGFGELLAGKVSEISKESRQDLPIGEYLIAPQMFENIYLGETFTFYVNVVNESEKTVSSVSLKCELQTSTQRVVLPCSVQDATIESSKCEGQVISHEVKEIGQHILICSVNYKTSNGENMYFRKFFKFPVSKPIDVKTKFYSAENQDVYLEAQIENTSNANMFLEKVELDPSQHYNVTSIAHEDEFGDVGKLLKPKDIRQFLFCLTPADVHNTLGYKDLTSIGKLDMSWRTSMGEKGRLQTSALQRIAPGYGDVRLSVEKTPACVDVQKPFEVSCRLYNCSERALDLQLRLEQPSNRHLVFCSPSGVSLGQLPPSQHVDFSLNVFPVTVGIQSISGIRITDTFTKRIYEHDDIAQIFVS	not soluble
MADPIDNNSGKYTVQRFPAVADPADPGYSRCTTWVQAVSHGFHQQRRDDEYLAKTLTAYQTDKRELTGVYVNGSVPDHSLGADVPVATYATMRKALNIGFGRQLEAHLVTAVTVRGTHRRNGILRGMITADLEAAKDDGLAMAALTASEASIYGRFGFGVATFERSIKVDTGPRFRLRGLPQGTVEVADPSVLLDVAPQVFERLQRLSPGSIDRQEYYRLVASGSIGHDGKPDTSVRCALHYDLSGSLDGYVSYRFKGWDHKPYTMEIVDLVAASNAAYLDLWRFLGSIDLIDEVTWVEAPVDDPLAWALEDPRCIEASEIRDMLWLRILDTPAALQARSFPVAGRLVLEVTDSLGLAGGTWVLESDGGAAAVVKEAAGETPDLSLDAADLGSIYLGAVSPVTLAAAGRIQEKTPGAALLAQQLFAVERSAHCLTHF	soluble
MADPNESGLSKSVEIGGISDKLDSMKLSKSKLTFTDLPMDALYECFKQLDYLERMPLRKVCRKFKNAVDGMDPGFKKIRICIYEPEAFDVEFDSNLFYFVKESGNATHYSKFNPRKMLKWKFGNGEDSLEVVMKFVTKMMNFSKYCCKLIERILKQSAYPNLKKIHLFGLNSRQTPSILRHFKPGKLEFLWSDSFNAETMKEMYKLDQWKMAKSQFENIKIRDQCAPGIPSTFGYLWNYHRYAKLVTVGKAVEIKNCLMKSTNFKKWEFCMGMSLDAARVFDPNASGFEISRDGGVKGTIRCLFKGHSVKIDFSPWKFEITKE	not soluble
MADPSFASGRLGSRLQGSIAMIAEELLRAGRLDDALKALQEQVRSQPSNATLRIFLFQLLAVMGQWARAQNQLKVVGELDASALPMVQTYSTAIDCEALRREVFAGRLTPVILGQPAEWIAPLLQALSLDAEGHGEAAQALREQAFDAAPAVPGRIGEAPFAWLADADTRLGPVLEVIVNGRYAWLPMSNLRSLKVEAPSDLRDLVWLPAELTLANGGATVALLPARYAETVEHGDDAARLGRKTEWLDSGLPVGQRLFVTDAGETALFDLRELDFEPTDA	not soluble
MADRAEMFSLSTFHSLSPPGCRPPQDISLEEFDDEDLSEITDDCGLGLSYDSDHCEKDSLSLGRSEQPHPICSFQDDFQEFEMIDDNEEEDDEEEEEEEEEEEDGDRQGKAGGGPGSQALAGDSLIPSPSLEESHKLRPTTLHLTTLGAQDSLNNNNGGFTSAPPSSWQETVLRSPAQEPLKELPAPLLPAEEERHEVQSLARPGCDCEGNQPPEQPASSGGASPSSDPGIEADLRSHSSGGHEGRRSSQELSSPGSDSEDAGGARLGRMISSISETELELSSDGGSSSGRSSHLTNSIEEASSPASEPEPEPEPLHEPPRRPAFLPVGQDDTNSEYESGSESEPDLSEDADSPWLLSNLVSRMISEGSSPIRCPGQCLSPAPRLPEEAASQANSVPQDCQDPEAGPHVELVDMDTLCGPPPPAPAAPRLGPAQPGPCLFLSNPTRDTITPLWATPGRTARPGRSCSAACSEEEEEDEEEDEEDEEDAEDSVVPPGSRTTGSTAPLDASLVYDAVKYTLVVDEHTQLELVSLRRCAGLGNDSEEDSSCEASEEEAGATLLGSDQVPEDASPDSPDLTFSKKFLNVFVNSTSRSSSTESFGLFSCVVNGEEREQTHRAVFRFIPRHPDELELDVDDPVLVEAEEDDFWFRGFNMRTGERGVFPAFYAHAVPGPAKDLLGSKRSPCWVDRFDVQFLGSVEVP	soluble
MADSNDLMSEFQKLQQETSKIQSHLTKDFLSSSAKLSENRVLQATQELCGKLTEKQKVQDDTINLLLSALGQIQENQNKILNQFASMQSQLDIVKRRQDAYERDLIQQKPSVPEQKVGESSKKSPRSAESALKYVETCTKVVDLCIAVSMPGRLFSIGANKMESVEQLKMKIECQTGIPRTKFWLRLHGKPLYDDKKLADYKWDTSVELLVRAS	not soluble
MADVIEIRGPVYNGSDINDIIDTYGENNALTIDATKFAAFYYDIDDNVTTETLSILAVPGTEGNVIGEGGIVYETTIQQVDYEFYRPAAGWSNYSLIGFFAEKYIPINPDKADKLAKLVLDSDDKYTIRTGEQLDLGEGYSIEAKQVDVDGEKVWLEFTKDGEFVDDEIISVVSGSDNTWEVELDDIQDEDDVVVLRVHVNQVFQGAVDSIAQIEGLWLIDYTNAMKIESDDEFGNLDNVKINGDTLTITNEDTFTLTRDDEEEIAEGLFFKTADDTRALEHHHHHH	soluble
MAEANPRRGKMRFRRNAASFPGNLHLVLVLRPTSFLQRTFTDIGFWFSQEDFMPKLPVVMLSSVSDLLTYIDDKQLTPELGGTLQYCHSEWIIFRNAIENFALTVKEMAQMLQSFGTELAETELPDDIPSIEEILAIRAERYHLLKNDITAVTKEGKILLTNLEVPDTEGAVSSRLECHRQISGDWQTINKLLTQVHDMETAFDGFWEKHQLKMEQYLQLWKFEQDFQQLVTEVEFLLNQQAELADVTGTIAQVKQKIKKLENLDENSQELLSKAQFVILHGHKLAANHHYALDLICQRCNELRYLSDILVNEIKAKRIQLSRTFKMHKLLQQARQCCDEGECLLANQEIDKFQSKEDAQKALQDIENFLEMALPFINYEPETLQYEFDVILSPELKVQMKTIQLKLENIRSIFENQQAGFRNLADKHVRPIQFVVPTPENLVTSGTPFFSSKQGKKTWRQNQSNLKIEVVPDCQEKRSSGPSSSLDNGNSLDVLKNHVLNELIQTERVYVRELYTVLLGYRAEMDNPEMFDLMPPLLRNKKDILFGNMAEIYEFHNDIFLSSLENCAHAPERVGPCFLERKDDFQMYAKYCQNKPRSETIWRKYSECAFFQECQRKLKHRLRLDSYLLKPVQRITKYQLLLKELLKYSKDCEGSALLKKALDAMLDLLKSVNDSMHQIAINGYIGNLNELGKMIMQGGFSVWIGHKKGATKMKDLARFKPMQRHLFLYEKAIVFCKRRVESGEGSDRYPSYSFKHCWKMDEVGITEYVKGDNRKFEIWYGEKEEVYIVQASNVDVKMTWLKEIRNILLKQQELLTVKKRKQQDQLTERDKFQISLQQNDEKQQGAFISTEETELEHTSTVVEVCEAIASVQAEANTVWTEASQSAEISEEPAEWSSNYFYPTYDENEEENRPLMRPVSEMALLY	soluble
MAEEEVGNSQRQSEEIEAMAAIYGEEWCVIDENAKIFCIRVTDFMDDPKWTLCLQVMLPSEYPGTAPPSYQLNAPWLKGQERADLSNSLEEIYVHNMGESILYQWVEKIRDALIQKSQITEPDPDVKKKTEEVEVESEEDPILEHPPENPVKTLDLKISEETQPETEELPPVAHGVPITDRRSTFQAHVAPVVCPEQVKLVLAKLYENKKIASATHNIYAYRIFCEDKQTFLQDCEDDGETAAGGRLLHLMEILNVKNVMVVVSRWYGGILLGPDRFKHINNCARNILVEKNFTNTPDESTKNLGKKKVKKDKKKNDH	soluble
MAEEPYVFTLKKRNNDDAEDDWDRYSENVRPTRRGRKIDALKRNVEEVVTEETARLKLDQLLEELQNLECSEESEELQKILDFCSWFEEKLAIGFHKVYYELLWKIISRHGFLEKYKEDERMLKIWEKMADNSAGHAHDIYQFAISRKSLVKCAALYARWSQSVELAGAYVEARRVLILARTNCAVPIQIVNDAEDALEMREMRRHLQERDSDDDEEEEETRKAFTNLPVIGDNHTVPIVRLPSMCSDTTKKAMKFDTGNVERVNPVCKDNQMQPFEVLSYTDADDVEYLRNVHELHAHIERYAIKETTNPSITGSSTSEAAAVTIYPVSSSEFEVWTVEGSGPTKAKARMAIKRVFKDLSFEEYAASLLPNHPSMVRATAKKLDFDETL	not soluble
MAEITEVRIYKSKGNGSVKAYASVSFDNEFVVKGLKVVEGEKGLWVSMPSRRMKDGSFQDVFHPVSREARDKIVDAVLKAYQEQE	not soluble
MAELILNQRPYPRDLGKIVCVGRNYAAHAKELNNPIPSSPILFIKPASSAVPFGPVFSIPKDQGSVHHELEIAILIGKALSRASTEQVAESIAGIGLGLDLTLRDVQDQLKEKGHPWERAKSFDGACPLTEFVAVNLASEDEWQAIGLTLEKNGQFQQQGSSAEMLFPILPLIAHMSEHFSLQPGDVILTGTPAGVGPLEVGDSLSAKLSLEDNVLLTCDGVVI	soluble
MAELRQVQVDIQQPGGIRELVQREAGDQVRGQDSFPGPDIRRVYQEVRYERRGKLICLIMAGGLGSRMNRPEKALIEVHGEALVDRTIRCMNGICSDIYALIDPSMERLQGKLRSVNVKVLAKRRGGYIEDLNHAMHSIGKFPILVIPGDIFIFNCSAFLDAVRRGMLAEANVVSFTDAGQYTGISIFNAQSGSYQDIDLNGSVANINTPEDLRAVIERLRTSEKLDGSAGHADG	not soluble
MAEPGGHEGPASTQRAKVCETHTAMVFFVEDRVYKRKKPVDLGFLDYTTRSSRRAVCEREIELNRRFAPDVYLGLGELRTPGEQEAEPLVVMRRMPDDRRLSHLVRTGAPVADDLRAVARHLAAWHSAAPRGPAIAEQGTRDALAARWEASFTQVDVLAAKGPTRDEAGEVERLVRRYLAGRKPLFGLRIEQGRVLDGHGDLLADDVFCLGDGPRILDCLEFDDALRYVDGLDDAAFLAMDLESLGAPESAAFFLAQYGEYSGDPAPPSLWHHYVAYRAFVRAKVSLIQARQGAPGAHATARRLVRMALRHLRASAVGLTLVAGLPGTGKSTLSGALADRLGAVLLSSDRLRKEMAGLSPQQTASADYGEGLYTPEWTARTYAELLDRAAALLALGESVVLDATWIDSAQREAARHTAESAGADLVALHCHVPDDVTAARLSTRAPGASDADLGVAEAMAAEEQPWSGAVGVDTGGSLEAAVGQALAAVRPWGSDQAKVFRRPYMEPDLEHHHHHH	not soluble
